Measurements taken from PMC7949115, “Poly(ADP-ribose) polymerase 1 regulates mitochondrial DNA repair in an NAD-dependent manner”.
One block for each molecule: values may come before it.

Experiments:
[1] = target: T1, PARP1 (PARP-1);Pol gamma A (catalytic subunit);Pol gamma B deltaI4 (accessory subunit) (Homo sapiens?;Homo sapiens?;Homo sapiens?) (UniProt P09874+P54098+Q9UHN1); assay: ITC; conditions: Buffer RX: 25 mM Hepes pH 7.5, 140 mM KCl, 5 mM MgCl2, 5% glycerol, 1 mM BME; ITC at 25 C; EMSA incubated on ice then room temperature, 4-20% native PAGE in …
T1 sequence (P09874 whole entry, stated change not applied, chain 1 of 3): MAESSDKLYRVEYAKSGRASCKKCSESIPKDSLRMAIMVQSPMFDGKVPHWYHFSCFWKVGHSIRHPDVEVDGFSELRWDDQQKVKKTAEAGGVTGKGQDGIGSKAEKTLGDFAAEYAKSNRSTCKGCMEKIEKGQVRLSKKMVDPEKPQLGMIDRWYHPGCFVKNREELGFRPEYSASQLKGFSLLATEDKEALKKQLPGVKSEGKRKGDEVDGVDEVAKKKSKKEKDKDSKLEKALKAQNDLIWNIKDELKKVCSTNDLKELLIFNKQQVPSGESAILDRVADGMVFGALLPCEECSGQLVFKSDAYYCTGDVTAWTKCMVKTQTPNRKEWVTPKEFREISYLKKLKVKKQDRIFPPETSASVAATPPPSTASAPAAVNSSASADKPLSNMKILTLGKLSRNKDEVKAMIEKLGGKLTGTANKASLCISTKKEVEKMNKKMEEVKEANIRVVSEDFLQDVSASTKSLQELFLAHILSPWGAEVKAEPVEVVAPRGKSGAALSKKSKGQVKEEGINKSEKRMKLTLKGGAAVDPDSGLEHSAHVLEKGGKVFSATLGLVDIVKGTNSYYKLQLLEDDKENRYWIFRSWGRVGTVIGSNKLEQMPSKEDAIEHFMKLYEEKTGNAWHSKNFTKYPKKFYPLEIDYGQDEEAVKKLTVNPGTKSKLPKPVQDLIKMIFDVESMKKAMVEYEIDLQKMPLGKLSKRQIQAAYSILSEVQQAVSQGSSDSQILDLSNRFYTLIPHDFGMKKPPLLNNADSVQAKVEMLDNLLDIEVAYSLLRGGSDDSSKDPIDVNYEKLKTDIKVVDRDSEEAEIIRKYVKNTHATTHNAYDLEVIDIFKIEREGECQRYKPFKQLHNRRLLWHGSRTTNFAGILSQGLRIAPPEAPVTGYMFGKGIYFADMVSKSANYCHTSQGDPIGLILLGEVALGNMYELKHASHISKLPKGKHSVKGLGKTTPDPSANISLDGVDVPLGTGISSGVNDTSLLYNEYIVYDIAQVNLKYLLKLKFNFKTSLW
T1 sequence (P54098 30-1239, stated change not applied, chain 2 of 3): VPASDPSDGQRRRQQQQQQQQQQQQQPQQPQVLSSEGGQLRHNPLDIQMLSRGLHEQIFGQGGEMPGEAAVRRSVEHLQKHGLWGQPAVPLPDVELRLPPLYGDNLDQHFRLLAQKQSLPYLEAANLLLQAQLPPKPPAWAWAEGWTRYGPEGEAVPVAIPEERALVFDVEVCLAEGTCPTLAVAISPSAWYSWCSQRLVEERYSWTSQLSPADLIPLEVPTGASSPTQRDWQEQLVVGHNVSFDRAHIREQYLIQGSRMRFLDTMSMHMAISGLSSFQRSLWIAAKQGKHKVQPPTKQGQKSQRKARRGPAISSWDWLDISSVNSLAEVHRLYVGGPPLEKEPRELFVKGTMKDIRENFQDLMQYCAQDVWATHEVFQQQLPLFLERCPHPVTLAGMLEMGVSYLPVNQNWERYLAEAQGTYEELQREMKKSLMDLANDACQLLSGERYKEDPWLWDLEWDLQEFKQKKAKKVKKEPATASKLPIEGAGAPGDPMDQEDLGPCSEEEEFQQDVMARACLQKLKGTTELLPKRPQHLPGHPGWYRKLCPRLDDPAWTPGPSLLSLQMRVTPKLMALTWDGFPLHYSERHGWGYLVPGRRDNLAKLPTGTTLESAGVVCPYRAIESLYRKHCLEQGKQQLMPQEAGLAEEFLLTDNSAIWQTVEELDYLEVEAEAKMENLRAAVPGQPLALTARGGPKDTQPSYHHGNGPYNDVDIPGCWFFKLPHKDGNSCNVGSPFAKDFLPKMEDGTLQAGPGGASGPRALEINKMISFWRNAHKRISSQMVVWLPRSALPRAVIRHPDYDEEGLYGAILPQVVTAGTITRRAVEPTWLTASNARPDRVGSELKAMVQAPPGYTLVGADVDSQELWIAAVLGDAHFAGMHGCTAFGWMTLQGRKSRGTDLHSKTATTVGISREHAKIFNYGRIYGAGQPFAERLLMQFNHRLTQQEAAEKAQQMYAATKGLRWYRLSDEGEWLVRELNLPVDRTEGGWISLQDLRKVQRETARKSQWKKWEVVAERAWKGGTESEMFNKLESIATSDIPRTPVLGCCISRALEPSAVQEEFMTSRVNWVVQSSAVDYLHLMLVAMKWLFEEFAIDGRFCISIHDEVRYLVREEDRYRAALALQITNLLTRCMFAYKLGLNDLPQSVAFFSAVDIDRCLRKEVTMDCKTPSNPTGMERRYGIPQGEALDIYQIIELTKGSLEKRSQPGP
T1 sequence (Q9UHN1 whole entry, stated change not applied, chain 3 of 3): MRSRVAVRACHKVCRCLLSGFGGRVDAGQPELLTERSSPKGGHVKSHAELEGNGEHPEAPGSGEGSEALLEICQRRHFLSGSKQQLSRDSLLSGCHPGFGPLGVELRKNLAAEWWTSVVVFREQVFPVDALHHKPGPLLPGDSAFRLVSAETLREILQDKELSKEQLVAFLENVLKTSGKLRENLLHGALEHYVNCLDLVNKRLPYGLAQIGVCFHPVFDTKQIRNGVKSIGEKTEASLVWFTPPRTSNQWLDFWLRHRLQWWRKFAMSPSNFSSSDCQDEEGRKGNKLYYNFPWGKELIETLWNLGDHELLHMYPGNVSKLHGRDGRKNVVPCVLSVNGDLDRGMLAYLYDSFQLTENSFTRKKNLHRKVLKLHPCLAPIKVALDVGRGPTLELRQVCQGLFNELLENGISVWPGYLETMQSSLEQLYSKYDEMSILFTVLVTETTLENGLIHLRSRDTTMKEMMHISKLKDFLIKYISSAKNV

[2] = target: T1, PARP1 (PARP-1);Pol gamma A (catalytic subunit);Pol gamma B deltaI4 (accessory subunit) (Homo sapiens?;Homo sapiens?;Homo sapiens?); assay: EMSA; conditions: apparent; PARP1 titrated into Pol gamma (0.5 uM)-DNA (0.75 uM); no NAD+; Buffer RX: 25 mM Hepes pH 7.5, 140 mM KCl, 5 mM MgCl2, 5% glycerol, 1 mM BME; ITC at 25 C; EMSA incubated on ice then room temperature, 4-20% native PAGE in …
[3] = target: mitochondrial DNA polymerase (Pol γ) holoenzyme, heterotrimer of Pol γA and dimeric Pol γB ΔI4 (UniProt P54098); assay: ITC; PARP-1 titrated into Pol γ (5 μM) to a final 10 μM, without DNA; 25 °C; Buffer RX (25 mM Hepes pH 7.5, 140 mM KCl, 5 mM MgCl2, 5% glycerol, 1 mM BME)
PARP1 (PARP-1) = PARP1 (PARP-1) (UniProt P09874 1-1014); assay: ITC; 25 C, 5 mM Mg2+, no NAD+; dH -58.4 kcal/mol; Buffer RX: 25 mM Hepes pH 7.5, 140 mM KCl, 5 mM MgCl2, 5% glycerol, 1 mM BME; ITC at 25 C; EMSA incubated on ice then room temperature, 4-20% native PAGE in Tris-glycine at 0 C; conditions: protein: recombinant; tags: His (Ni-NTA purified); self-annealed dumbbell, two hairpins, 3-nt gap
Sequence of PARP1 (PARP-1) (P09874 whole entry): as the sequence (P09874 whole entry, stated change not applied, chain 1 of 3) above

Molecule: CTTTTCTGGTGAAAAGCTCGTCGGCAGCGCTTGAGCAGCGGCAGCTGGTGCTGCCGCTGCTCAAGCGCTGCCGAC [d3ntgap (75-nt dumbbell with 3-nt gap)]
- Kd [1]: 111 nM
- Kd [2]: 600 nM

- Kd [3]: > 10000 nM
Molecule: Poly(ADP-ribose) polymerase 1 (from UniProt P09874 1-1014) (enzyme)

B1: d3ntgap (75-nt dumbbell with 3-nt gap) (structured_DNA)
DNA: CTTTTCTGGTGAAAAGCTCGTCGGCAGCGCTTGAGCAGCGGCAGCTGGTGCTGCCGCTGCTCAAGCGCTGCCGAC
- Kd (PARP1 (PARP-1)): 36.4 nM
